The source of these data is patent US9260500B2, “Peptide and use thereof” (Takeda Pharmaceutical Company Limited, priority 2009, dated 2016).

Starred links: 1 amine or outer side, 2 acyl side, 3 side chain; linkers in the order of their positions; H or OH if unused. Non-standard residues stand in square brackets, D forms with d. *: point of attachment. X4 = ((1S)-1-Carboxy-3-methylbutyl)carbamoyl, CC(C)C[C@H](NC(=O)*)C(=O)O; (3-Carboxypropyl)carbamoyl = O=C(O)CCCNC(=O)*; Arg(Me) = CNC(=N)NCCC[C@H](N)C(=O)O; tBuAla = CC(C)(C)C[C@H](N)C(=O)O; 4Pal = N[C@@H](Cc1ccncc1)C(=O)O; dHyp = O=C(O)[C@H]1C[C@H](O)CN1; Cha = N[C@@H](CC1CCCCC1)C(=O)O; Suc = O=C(CCC(=O)[*:2])[*:1]; dIva = CC[C@@](C)(N)C(=O)O; Iva = CC[C@](C)(N)C(=O)O; Aib = CC(C)(N)C(=O)O

In experiment [1] the target is T1, human Y2 receptor (Homo sapiens, UniProt P49146).
T1 construct: expressed in transfected cells; membrane fraction
T1 sequence (P49146 1-381): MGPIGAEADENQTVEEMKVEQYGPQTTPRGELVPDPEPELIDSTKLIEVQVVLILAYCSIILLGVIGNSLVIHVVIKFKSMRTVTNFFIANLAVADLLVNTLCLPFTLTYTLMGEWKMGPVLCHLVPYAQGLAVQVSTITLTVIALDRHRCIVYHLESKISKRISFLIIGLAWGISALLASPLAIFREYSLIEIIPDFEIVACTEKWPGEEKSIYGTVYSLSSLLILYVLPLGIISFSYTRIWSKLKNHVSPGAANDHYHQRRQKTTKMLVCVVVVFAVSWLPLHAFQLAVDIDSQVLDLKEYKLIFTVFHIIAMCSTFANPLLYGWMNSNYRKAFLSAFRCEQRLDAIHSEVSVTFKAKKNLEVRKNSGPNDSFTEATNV
Description: Human Y2 Receptor G Protein Binding Assay (GBA), [35S]GTPγS. As to conditions: EC50 of test compound/EC50 of PYY(3-36) (PYY3-36 taken as 1), hY2R/CHO membrane fraction. It is filed as biochemical. The essentials: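 Agonism measured as [35S]GTPγS binding, read by GF/C filtration and scintillation counting after 120 min at room temperature, using human Y2 membranes at 1 μg protein/mL in pH 7.4 Tris/MgCl2/NaCl/GDP buffer. Compound serially diluted 100 μM–1 nM; EC50 normalized to PYY(3-36) (ratio = compound/PYY).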
For orientation: Binding of GTPγS marks nucleotide exchange on a G protein.

Experiment [2] deals with T1, human Y2 receptor. Description: Receptor Binding Assay (RBA) for Human Y2, [125I]-PYY displacement on hY2R/CHO membrane fraction. As to conditions: IC50 of test compound/IC50 of PYY(3-36) (PYY(3-36) taken as 1). In outline:
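hY2R stably expressed in CHO/dhfr− cells; membrane fraction prepared from cells disrupted in 10 mM NaHCO3, 5 mM EDTA buffer with protease inhibitors. Binding read as displacement of [125I]-PYY.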

Another experiment deals with male C57EL/6J mice. The experiment is described as follows: 3-Days Continuous Subcutaneous Administration Test-1 (food intake suppressing activity). It is filed as in vivo, mouse. As to conditions: 0.03 mg/kg/day, subcutaneous Alzet pump, food consumption over 3 days; relative to food intake suppression rate for PYY(3-36) (1 mg/kg/day) taken as 100%. The method, then: (4) Test Method: 3-Days Continuous Subcutaneous Administration Test-1
The food intake suppressing activity of the compound of the present invention was examined by the method described below.
The test compound was dissolved in 50% DMSO so that sustained release would occur at 0.03 mg/kg/day, and the solution was filled in the Alzet Pump (Alzet model: 1003D, sustained release rate: 1 μL/hr, capacity: 100 μL). After the filling, the pump was placed in a 2 mL Eppendorf tube containing 330 μL of physiological saline, and incubated at 37° C. for 2 hours or more. Thereafter, this pump was subcutaneously embedded in the back of each mouse by the method described below. After weighing, each male […] mice at 12-13 weeks of age (25° C., allowed to take food and water ad libitum; 12-hour bright-12-hour dark cycle, lighting turned on at 08:00) was anesthetized with diethyl ether; the skin in the upper back thereof was incised, and the above-mentioned pump was embedded subcutaneously. Thereafter, several drops of penicillin solution (100000 units/mL) were added to the incised part, and the incision was sutured using Michel's surgical needle. This mouse was returned to the rearing cage (reared alone), and given previously weighed food; 3 days later, the amount of remaining food was measured. Food consumption was calculated by subtracting the amount of remaining food after 3 days from the weight of the food given on the day of pump embedding. The food intake suppressing activity of each test compound was expressed as a food intake suppression rate (%) relative to the food intake suppression rate for PYY(3-36) (1 mg/kg/day) taken as 100%.

Turning to “[(1S)-1-Carboxy-3-methylbutyl]carbamoyl-[D-Pro24, Pya(4)26, Cha27,36, Aib28,31, Lys30]-PYY(23-36) (X4-S[dP]R[4Pal][Cha][Aib]NK[Aib]TRQR[Cha]-NH2; SMILES CC(C)C[C@H](NC(=O)N[C@@H](CO)C(=O)N1CCC[C@@H]1C(=O)N[C@@H](CCCNC(=N)N)C(=O)N[C@@H](Cc1ccncc1)C(=O)N[C@@H](CC1CCCCC1)C(=O)NC(C)(C)C(=O)N[C@@H](CC(N)=O)C(=O)N[C@@H](CCCCN)C(=O)NC(C)(C)C(=O)N[C@H](C(=O)N[C@@H](CCCNC(=N)N)C(=O)N[C@@H](CCC(N)=O)C(=O)N[C@@H](CCCNC(=N)N)C(=O)N[C@@H](CC1CCCCC1)C(N)=O)[C@@H](C)O)C(=O)O) [compound No. 271]”, the “GBA EC50 Ratio” value with human Y2 receptor [1] came to 0.82. For the same substance, in the experiment with human Y2 receptor [2], the “RBA IC50 Ratio” value came to 0.82. In the experiment on male C57EL/6J mice, the “food intake suppression rate (%)” value came out at 28%.

Regarding “3-Carboxypropionyl-[Gln23, D-Pro24, Pya(4)26, Cha27,36, Aib28,31, Lys30]-PYY(23-36) (Suc-Q[dP]R[4Pal][Cha][Aib]NK[Aib]TRQR[Cha]-NH2; SMILES C[C@@H](O)[C@H](NC(=O)C(C)(C)NC(=O)[C@H](CCCCN)NC(=O)[C@H](CC(N)=O)NC(=O)C(C)(C)NC(=O)[C@H](CC1CCCCC1)NC(=O)[C@H](Cc1ccncc1)NC(=O)[C@H](CCCNC(=N)N)NC(=O)[C@H]1CCCN1C(=O)[C@H](CCC(N)=O)NC(=O)CCC(=O)O)C(=O)N[C@@H](CCCNC(=N)N)C(=O)N[C@@H](CCC(N)=O)C(=O)N[C@@H](CCCNC(=N)N)C(=O)N[C@@H](CC1CCCCC1)C(N)=O) [compound No. 218]”, in the experiment with human Y2 receptor [1], the “GBA EC50 Ratio” value worked out at 1.9. The “RBA IC50 Ratio” value in the experiment with human Y2 receptor [2] stood at 2. The “food intake suppression rate (%)” value in the experiment on male C57EL/6J mice was found to be 27%.

Regarding “Ac-[Iva24, Pya(4)26, Cha27,36, Aib28,31, Lys30]-PYY(23-36) (Ac-S[Iva]R[4Pal][Cha][Aib]NK[Aib]TRQR[Cha]-NH2; SMILES CC[C@](C)(NC(=O)[C@H](CO)NC(C)=O)C(=O)N[C@@H](CCCNC(=N)N)C(=O)N[C@@H](Cc1ccncc1)C(=O)N[C@@H](CC1CCCCC1)C(=O)NC(C)(C)C(=O)N[C@@H](CC(N)=O)C(=O)N[C@@H](CCCCN)C(=O)NC(C)(C)C(=O)N[C@H](C(=O)N[C@@H](CCCNC(=N)N)C(=O)N[C@@H](CCC(N)=O)C(=O)N[C@@H](CCCNC(=N)N)C(=O)N[C@@H](CC1CCCCC1)C(N)=O)[C@@H](C)O) [compound No. 241]”, the “GBA EC50 Ratio” value in the experiment with human Y2 receptor [1] was determined as 0.91. In addition, in the experiment with human Y2 receptor [2], the “RBA IC50 Ratio” value worked out at 0.58. Also, the “food intake suppression rate (%)” value with male C57EL/6J mice was found to be 16%.

Take “Ac-[D-Pro24, Pya(4)26, Cha27,36, Aib28, Lys30, D-Iva31]-PYY(23-36) (Ac-S[dP]R[4Pal][Cha][Aib]NK[dIva]TRQR[Cha]-NH2; SMILES CC[C@@](C)(NC(=O)[C@H](CCCCN)NC(=O)[C@H](CC(N)=O)NC(=O)C(C)(C)NC(=O)[C@H](CC1CCCCC1)NC(=O)[C@H](Cc1ccncc1)NC(=O)[C@H](CCCNC(=N)N)NC(=O)[C@H]1CCCN1C(=O)[C@H](CO)NC(C)=O)C(=O)N[C@H](C(=O)N[C@@H](CCCNC(=N)N)C(=O)N[C@@H](CCC(N)=O)C(=O)N[C@@H](CCCNC(=N)N)C(=O)N[C@@H](CC1CCCCC1)C(N)=O)[C@@H](C)O) [compound No. 232]”: the “GBA EC50 Ratio” value in the experiment with human Y2 receptor [1] is given as 1.6. Besides, the “RBA IC50 Ratio” value in the experiment with human Y2 receptor [2] was determined as 0.55. In addition, in the experiment on male C57EL/6J mice, the “food intake suppression rate (%)” value came out at 34%.

Consider “Ac-[Glu23, D-Hyp24, Iva25, Pya(4)26, Cha27,36, Leu(Me)28, Lys30, Aib31]-PYY(23-36) (Ac-E[dHyp][Iva][4Pal][Cha][tBuAla]NK[Aib]TRQR[Cha]-NH2; SMILES CC[C@](C)(NC(=O)[C@H]1C[C@H](O)CN1C(=O)[C@H](CCC(=O)O)NC(C)=O)C(=O)N[C@@H](Cc1ccncc1)C(=O)N[C@@H](CC1CCCCC1)C(=O)N[C@@H](CC(C)(C)C)C(=O)N[C@@H](CC(N)=O)C(=O)N[C@@H](CCCCN)C(=O)NC(C)(C)C(=O)N[C@H](C(=O)N[C@@H](CCCNC(=N)N)C(=O)N[C@@H](CCC(N)=O)C(=O)N[C@@H](CCCNC(=N)N)C(=O)N[C@@H](CC1CCCCC1)C(N)=O)[C@@H](C)O) [compound No. 351]”, for which the “GBA EC50 Ratio” value in the experiment with human Y2 receptor [1] was 1.9. Further, the “RBA IC50 Ratio” value in the experiment with human Y2 receptor [2] was determined as 1.2. In addition, in the experiment on male C57EL/6J mice, the “food intake suppression rate (%)” value is recorded as 27%.

Turning to “Ac-[D-Pro24, Iva25, Pya(4)26, Cha27,36, Aib28,31, Arg(Me)30]-PYY(23-36) (Ac-S[dP][Iva][4Pal][Cha][Aib]N[Arg(Me)][Aib]TRQR[Cha]-NH2) [compound No. 316]”, the “GBA EC50 Ratio” value in the experiment with human Y2 receptor [1] is on record as 1.7. In the experiment with human Y2 receptor [2], the “RBA IC50 Ratio” value was 2.4. The “food intake suppression rate (%)” value with male C57EL/6J mice amounted to 29%.

“3-Carboxypropionyl-[D-Pro24, Pya(4)26, Cha27,36, Aib28,31, Lys30]-PYY(24-36) (Suc-[dP]R[4Pal][Cha][Aib]NK[Aib]TRQR[Cha]-NH2; SMILES C[C@@H](O)[C@H](NC(=O)C(C)(C)NC(=O)[C@H](CCCCN)NC(=O)[C@H](CC(N)=O)NC(=O)C(C)(C)NC(=O)[C@H](CC1CCCCC1)NC(=O)[C@H](Cc1ccncc1)NC(=O)[C@H](CCCNC(=N)N)NC(=O)[C@H]1CCCN1C(=O)CCC(=O)O)C(=O)N[C@@H](CCCNC(=N)N)C(=O)N[C@@H](CCC(N)=O)C(=O)N[C@@H](CCCNC(=N)N)C(=O)N[C@@H](CC1CCCCC1)C(N)=O) [compound No. 303]”: the “GBA EC50 Ratio” value with human Y2 receptor [1] stood at 1.2. The “RBA IC50 Ratio” value with human Y2 receptor [2] is on record as 1.2. Further, the “food intake suppression rate (%)” value in the experiment with male C57EL/6J mice amounted to 20%.

Consider “(3-Carboxypropyl)carbamoyl-[D-Hyp24, Iva25, Pya(4)26, Cha27,36, Leu(Me)28, Lys30, Aib31]-PYY(23-36) ({(3-Carboxypropyl)carbamoyl}-S[dHyp][Iva][4Pal][Cha][tBuAla]NK[Aib]TRQR[Cha]-NH2; ends and bridges not checked) [compound No. 349]”, for which the “GBA EC50 Ratio” value with human Y2 receptor [1] came to 1.7. Moreover, in the experiment with human Y2 receptor [2], the “RBA IC50 Ratio” value came out at 0.57. In addition, in the experiment with male C57EL/6J mice, the “food intake suppression rate (%)” value worked out at 52%.

Take “Ac-[D-Pro24, Cha27,36, Leu(Me)28, Lys30, Aib31]-PYY(23-36) (Ac-S[dP]RH[Cha][tBuAla]NK[Aib]TRQR[Cha]-NH2; SMILES CC(=O)N[C@@H](CO)C(=O)N1CCC[C@@H]1C(=O)N[C@@H](CCCNC(=N)N)C(=O)N[C@@H](Cc1c[nH]cn1)C(=O)N[C@@H](CC1CCCCC1)C(=O)N[C@@H](CC(C)(C)C)C(=O)N[C@@H](CC(N)=O)C(=O)N[C@@H](CCCCN)C(=O)NC(C)(C)C(=O)N[C@H](C(=O)N[C@@H](CCCNC(=N)N)C(=O)N[C@@H](CCC(N)=O)C(=O)N[C@@H](CCCNC(=N)N)C(=O)N[C@@H](CC1CCCCC1)C(N)=O)[C@@H](C)O) [compound No. 136]”: the “food intake suppression rate (%)” value in the experiment on male C57EL/6J mice is on record as 10%.

Regarding “Ac-[D-Pro24, Phe26, Cha27,36, Aib28,31, Lys30]-PYY(23-36) (Ac-S[dP]RF[Cha][Aib]NK[Aib]TRQR[Cha]-NH2; SMILES CC(=O)N[C@@H](CO)C(=O)N1CCC[C@@H]1C(=O)N[C@@H](CCCNC(=N)N)C(=O)N[C@@H](Cc1ccccc1)C(=O)N[C@@H](CC1CCCCC1)C(=O)NC(C)(C)C(=O)N[C@@H](CC(N)=O)C(=O)N[C@@H](CCCCN)C(=O)NC(C)(C)C(=O)N[C@H](C(=O)N[C@@H](CCCNC(=N)N)C(=O)N[C@@H](CCC(N)=O)C(=O)N[C@@H](CCCNC(=N)N)C(=O)N[C@@H](CC1CCCCC1)C(N)=O)[C@@H](C)O) [compound No. 345]”, in the experiment with male C57EL/6J mice, the “food intake suppression rate (%)” value came out at 10%.
